In series [1] the test system is NCCCP(=O)(O)OP(=O)(O)OC[C@H]1O[C@@H](n2ccc(N)nc2=O)[C@H](O)[C@@H]1O. Briefly: steady-state kinetics. Format: biochemical, Streptomyces rubellomurinus.
The test system of series [2] is Nc1ccn([C@@H]2O[C@H](COP(=O)(O)OP(=O)(O)CCCNO)[C@@H](O)[C@H]2O)c(=O)n1. Put plainly: steady-state kinetics. Format: biochemical, Streptomyces rubellomurinus.

Take FrbF (Streptomyces rubellomurinus): in series [1], the Km is 35.2 ± 3.2 µM, the kcat amounted to 0.0577 ± 0.00267 s⁻¹ and the catalytic efficiency (kcat/Km) is 1630 M⁻¹ s⁻¹. In addition, in series [2], the Km stood at 52.3 ± 3.0 µM, the kcat came to 0.034 ± 0.00717 s⁻¹ and the kcat/Km was found to be 650 M⁻¹ s⁻¹.

By Km is commonly meant the substrate concentration at which the rate is half of its maximum. By kcat is commonly meant the number of substrate molecules converted per active site and unit of time at saturation. A word on the kcat/Km: it is the turnover number divided by the Michaelis constant.

These data come from PMC2819980.
